According to patent US11781164B2, “Demethylation of reticuline and derivatives thereof with fungal cytochrome P450” (priority 2017, dated 2023):

B1: CYPDN6: cytochrome P450 homolog A0A0B7NKC0 from Parasitella parasitica, codon-optimized (protein, listed as Parasitella parasitica)
chain: MAVLCLVLERIYASYAVPPSYLRHYPKVSLFDMLKSFYIKESVASRNKRLIAPLTNAGHGFYVCRIPLNWTIYVTDPLAAKTLLLKSENFPKNKAIFTALGDSSPVIKFMGKENVAMSNGEEWKKQRKIMNPAFHRSQPVKTFGNVMPDLFALIDQDPERVFITPKMKSFALDALGLSAFGFDFQSLKGDPEGWTRKYNVVISTLFNPFVNIFASLDFLVKYISPERRRVIKATDEFNSMLGELADKRRQEILDGEKKNIPENEKDLLTLMIEADIRDNIKTTTTELRHNMAIFFLAGHDSTANTLSLCLYNLAKHKHVQKKARQEVLAILGDEPLDVIPTAEDLKKLDYVNMVIKENLRRNGPADNLMSRDTQQDMNLNGTIIPKGSKVSVNVAAIHLNPKIWHDPENFIPERFEQGGEFEQHDGFTWIPFSNGSRQCLGLNFSLTEQRVVLCMILKRYEIDIPKDSIHYNEIVFDGAFTFAPQSLELSFKRRY
B2: CYPDN31: cytochrome P450 homolog A0A291C3B2 from Absidia caerulea, codon-optimized (protein, listed as Absidia caerulea)
chain: MLTEYIHHFINNFDQKKTMDQLQTMVSSKEGMIGLATAAVLMSGAAVYKSTRIERGCPQVPNQSYFMGSTKEYRNNPAAFIEKWEKELGPVYGAYLFGQYTTVVSGPQVREVFLNDDFDFIAGIRRDFDTNLLSNGGDLRDLPVHKFAGSIKKNLSPKLPFYTSRVIEHLKIGLKEFCGVVPDEGKEFDHVYPLVQHMVAKASASVFVGPELAKNEQLIDSFKNMVLEVGSELAPKPYLEFFPNLMRLRMWFIGKTSQKVKRHRDQLRAALAPQVEYRLKAMKENDSNWDRPNDFLQDILESGDIPAHVDVTDHCCDWMTQIIFAALHTTSENGTLSFYRLLDNPKVLEDLLEEQNQVLEDAGYDSSVGPEVFTREILNKFVKMDSVIRETSRLRNDYIGLPHKNISSKTITLSGGAMIRPGERAYVNAYSNHRDGTIQKVTDNLKSFEPYRFVNQDRNSTKIGEDFIFFGMGKHACPGRWFAIQEIKTIIAMMIRSYQLSALGPVTFPTDDYSRIPMGRFKIVPRK
B3: CYPDN34: cytochrome P450 homolog A0A068SBP8 from Lichtheimia corymbifera, codon-optimized (protein, listed as Lichtheimia corymbifera)
chain: MYKAFLDNGIVSSIISTLDNKDISVFLNDPNHAKTRSVALVSFCTVIAAYALSRSRSHSKDKDTPMVPYTWPLIGSSREYRKDPEAFIKKWSSELGDVYKVHLFGRIQTVVSGKHVYCLQKDFDFQQGMSKTFDIWLLLDAPLGGRFTLDKIRHATIKFTRTKMLTNTPCVVKQLIAAEHEMIGDAQTPSEIANLYPLMEHLVAIASATNFVGPGLTKDKDLVETYKHLAVDVGSELGDGNEFLEAFPWISRLRMWYLGKYGNSVDKHRKRLLRAMKPIIDERLAAAENGIENPQDFIQDIIEESEITSGDPDKYILAVRWILVMIASAGHTTTENTTIILYRILQHPEVIDELLEEQRQVLEKHHGPDVKDNEDLATLFTGEVIKDLVKLDSVCRETMRLRSFYIDLPHTYVGKSPLALTNTCTIKPGEDVLLNMWLNHNRTAMQYDGLGDYNEFKPFRFVGLDRSSTKLGGDFLLFGLGTHACPGRWFAMHQTKTILSMLLRRYQITPQETIVFPIGNRSHVPSGKVTFQKRQ
B4: CYPDN4: cytochrome P450 homolog I1CCX6 from Rhizopus delemar, codon-optimized (protein)
chain: MVKSFLKAESPTDRYKRIIHPVASKGNGFYVSKVPFLWAVYVTNPVVAKQVLLKSDIFPKNHAVFHQIGKDSPFTQFLGLDNVALSNGDVWKKQRKVMNPAFHRSLPIKTMASVVNTLFSVIDNSDGPVLITSAMQNFTLDVLGLAIFGFEFKALQGDPDNWTKTYKTVIESLFDPVMNVFATFDTLLTWVYPKRRECSVAISKMNLKFDELAKQKRAEVKSGAYANVPDHDKDLLTLMLEAMEKGEALTSQDELRHNIAVFFLAGHGTTAHTLSFCFYHLAKNKHIQRKLREEIISVLGDEPVDIVPSLEQMKHMKYMNLVIKENLRMNTPADTLFTRDTVEDINLAGHIIPKDTAISIDINAIHHDPKYWHNPEHFIPERFAEGGEQESHEGLTWLPFSNGSRQCIGMNFSLAEQRLVLAMLVRKYEIDIPKDSIHYERILFDRPGNIAPLSLGLTFTKRY
modifications: Rhizopus delemar
B5: CYPDN35: cytochrome P450 homolog A0A1X2GSL0 from Hesseltinella vesiculosa, codon-optimized (protein, listed as Hesseltinella vesiculosa)
chain: MLTQYLQFAADRLGQKKTLDQLQAVVTSKQGVVGITTAVALIALANHFRSPKIDRGCPQVEGKGWFGYATEEFRENPGKFLSEWHEKLGPVYGVKIFGHYATVVSGPYVREVFLDDRFSFIAAITKLFDPNLMTDSGHSSEQTAKNAADSIKRFLSPNLKHYTPRVIEHLNLGIEDWCGEVPAEGIEIENAFPFLQHLVARASASVFVGIELAKNEELVDSFQNMVSNISSGLKPKPWLEYFPSLTKLGMYMIGKTNPAVKRHRTQMANALRPEVDRRLKAMASNDTNWDRPDDMLQHILESYPAPEGLDVITYLINWMTQLIFAALHTTSENGKVVLYRLLQHPEVMEELYAEQNEVLAAAGYDESAGPEVFDREMLNKFVKLDSAVREACRLKNEFVGLPHENTTDKTLTLSNGAVILPGEFVYINQFVNHRDPELQAAIDDVHQFKPFRFVGTDHNAAKVSEGFVFFGMGRHACPGRWFAIQEIKTIVSLLLRKYKVEPIDPIVFSNQERDAFPIGPCRIRLTPRKAL
B6: CYPDN7: cytochrome P450 homolog I1CBZ0 from Rhizopus delemar, codon-optimized (protein)
chain: MALEGALPLFQKRSKSSYIVAAILLITVKQIYSFFRVPTNLRHLPCVSFFAMAKSLLTCEPPYNRFKRITFPAIQEGNGFYVSKIPTGWTVYVANPVAAKQLLLKSNNFPKSHYGLDTIGEKSTAVQFVGRDNVVLSNGEIWKKQRKIMNPVFHRSMPIKTVASLVPLLFSAIEEANGRIMITPKMKDFTLDALGLTIFDFDFKALQGDPDNWTSIYRLITRSIFDPISYVFCALEPLLVYVYPKRRRSVDAVAKINAKFDQVISKKREELQNGIFSNKPDNEKDLVTLMLEAGMQEDVSITNEELRHNMAVLFLAGHDSTSNTLSFCLYHLAKNKRAQQKLREEIINILGDDDIDIVPSLEELKQMKYMNMVIKETLRLGMPLDLLTPRKTVEDTFVADTFIPKDTVIAVDAGALHRDPRSWKDPDEFVPERFEDDGEQNSHEGLTWVPFSNGTRQCIGMNFSLMEQRLTLTMLLRKYEVDLPKDSIHYDHIIYEQPSYVCPESLELIFTKRY
modifications: Rhizopus delemar
B7: CYPDN5: cytochrome P450 homolog A0A1X0RYU8 from Rhizopus microsporus, codon-optimized (protein, listed as Rhizopus microsporus)
chain: MELTEIAIETYHRALDKLVPILQKRSKRSYIGVAVALVVLERIYSFFRVPKSIRHIPAVPYFAMAKSFLTSEAPSSRHQRIVLPVIEKGNGIYVNKLPLEWTVNVATPTSAKHVLLKSEIYPKSESFLKLLGPQSPAVLFLGGKNVGFVNGDAWRKQRKIMNPAFHRSMPIQTMASVMPDFFSAIDKYGDEGIPISTIMRDFTLDVLGHTAFGFDFKALKGDPDNWTRTYHIINNALFNPTANMLTSLNPILSIISPERRRILEAIKKLNGMLEAMIKQKRQEVQSNAQAHAPENEKDLLTLMLEAQQRGEGLATDEELKHNVSGFFLAGHDTTSETLSFYFYNIAKNKDVQRKLREELNAVLGDKPVDVIPTLEQLKSMEYLNCTIKENLRLNGPADNVLPRVATEDMVVDGTPIPKGTVVNVDIHAIHHDTRYWKDPYKFVPERFLPGGEHDSHSGMTWLPFGNGARQCLGMNFSLAEQRLVIAMTVRKYDIEVPKDSIHYDHPILESSKTKAPASLKLIFRKRY
B8: Cel_CPR_co: codon-optimized cytochrome P450 reductase from Cunninghamella elegans (protein)
chain: MAQQTPAVIDTLDLILLGSIGLGTIAWFTRRQLSERLFGTGQSNATPKPTTPQAPKRERNFVKVMEQQGRKVIFFYGSQTGTAEDFASRLAKQCSQKYGVSCMTADIEMYDLSYLDTLSEDSLVCFVMATYGEGEPTDNAVDFWEQFITDESPVFSEGGETLENLRYLMFGLGNKTYEHYNAVARILDKKLTGLGAKRIGERGEGDDDGSLEEDFLAWQESMWPTFCDALGVDENNAQQGPRQASYSVDELKEEYKNDDVYFGELGTKSKDSSRVVYDAKRPYNAPITTRELFNSSERHCLHVDIDISGTNLSYQTGDHVAMWPTNNEDEVLRLANILGLQDKLDNVISVKAIDPAAPKQHPFPVPTTYRAIFRHYIDICAPASRQSLMSFVEFAPTDSAKDLLKLLATDKDEYRLKVGEAVRNLGEVLELVSGNDKDTQPGSFTSVPFDLIVETIPRLQPRYYSISSSSKENSSIISATCVTLAYQPDPTPDRTVYGVNTNFLYRIHTQSSDNDIQGLPKYDLAGPRKAFLNEQGQSHKLPIHIRRSQFKLPRNTSCPVIMIGPGTGVAPFRGFVRERALQKKEGKSVGPTVLFFGNRHSEHDFLYSDEWPELFNTLGDDSKLITAFSRETEHKVYVQHRLEENGKDIWQLLEKGAYIYVCGDARNMARDVNQTFVNLAMEYGEKTEQKALDYVKSLRNTGRYQEDVWS
modifications: codon-optimized; Cunninghamella elegans

Each molecule was assayed on thebaine (assay: Demethylation of thebaine by new cytochrome P450 fungal and plant homologs co-expressed with CPRs in S. cerevisiae). Details: 0.5 mM thebaine, SC or DELFT media pH 7, 72 h, 30° C.; co-expressed with Cel_CPR_co, Tp_CPR_5866, Tp_CPR_DN10898 or POR1.

Row | Molecule | Northebaine production
1 | B1 | +
2 | B2 | +
3 | B3 | +
4 | B4 | −
5 | B5 | +
6 | B6 | +
7 | B7 | +

Each molecule was assayed on thebaine (assay: Bioconversion of thebaine (N-demethylation to northebaine) by S. cerevisiae expressing cytochrome P450s and CPRs, LC-MS). Details: 0.1 mM thebaine, 0.1 M potassium phosphate buffer pH 7, 72 h, 30° C.

Row | Molecule | support of N-demethylase activity of P450_DN15259_c0_g1_i7_A by CPR (northebaine)
8 | B8 | found to support N-demethylase activity
